Source: patent US10400024B2, “Cleavage and exchange of major histocompatibility complex ligands employing azobenzene-containing peptides” (priority 2014, dated 2019)
“Also recorded” adds a separate entry of the source.

What was measured:
PBMCs (CD8+ cells) = assay: Cell viability assay with sodium dithionite (Annexin V, LIVE/DEAD, flow cytometry); type: cell-based, human; settings: 10 mM, 16 hours exposure; primary and cultured cells
Protocol: 10^6 freshly isolated PBMCs from healthy volunteers were incubated in 1 ml RPMI 1640 culture media containing HEPES-buffered 1 mM to 100 mM sodium dithionite (pH 7.4) at 37° C., 5% CO2. After 1-hour or 16-hour incubation, the cells were immediately assessed for cell viability or rested overnight in fresh media (for 1-hour treatment only). The cells were harvested, washed with PBS twice and stained with cell viability LIVE/DEAD® fixable near-IR stain (Molecular Probes®). The cells were then washed again with PBS and stained with anti-human CD8 (Clone RPA-T8; BioLegend) Brilliant Violet 421™ antibodies for 15 minutes. Thereafter, the cells were washed once with PBS and once with 1× Annexin V binding buffer (10 mM HEPES, pH 7.4; 140 mM NaCl; 2.5 mM CaCl2) prior to incubation with Annexin V FITC (eBioscience) for 10 minutes. The stained cells were immediately analyzed on BD LSRII flow cytometer and data were processed using FlowJo (Tree Star).

HLA-A*02:01 = HLA-A*02:01 (Homo sapiens, UniProt P04439, D140Y/D185E/D98H/E176V/E277Q/G131W/G231S/I119V/I121R/I166T/I218V/L300P/L318F/N151K/N90K/P208A/P217A/Q86G/Q94H/R138H/R169H/T345S); settings: cited from earlier work
[1] = type: physicochemical

Compound | known binder class to HLA-A*02:01 (HLA-A*02:01) | also measured
O=S([O-])S(=O)[O-].[Na+].[Na+] [dithionite, sodium dithionite] | – | apoptosis or cell death of cells exposed to buffered dithionite (PBMCs (CD8+ cells)): little sign of apoptosis or cell death
ALQLLLEV | intermediate- | –
NMLSTVLGV | high-affinity | –
SIIPSGPLK [Peptide 10] | – | epitope modification after oxidative conditions ([1]; 0.3 mM sodium periodate, RT, 2 hours): cleaved the N-terminal Ser; also recorded: N-terminal serine of 10 was cleaved; epitope modification in PBS ([1]; PBS control incubation): unmodified
SLENFRAYV | intermediate- | –
VMLRWGVLA | intermediate- | –
